{"source": "patent US10695406B2", "about": "“Modulation of cellular stress using a B-cell oxidative and/or endoplasmic reticulum stress inhibitor and a targeting agent” (THE UNIVERSITY OF QUEENSLAND, priority 2014, dated 2020)", "key": {"Murine MIN6N8 cells": {"tested_on": "Murine MIN6N8 cells", "test": "ERAI-sXBP1 reporter ER stress in MIN6N8 cells with 0.5 mM palmitate", "format": "cell-based", "details": "for ER stress caused by the protein alone: 15.4 nM, no palmitate; for ER stress caused by the protein alone / protection from palmitate-induced ER stress: 24 hours; for protection from palmitate-induced ER stress: co-treated with 0.5 mM palmitate, increasing concentrations; for in vitro efficacy for suppression of ER and oxidative stress (conclusion): murine and human cells", "experimental": "(§1) Cell culture: Murine MIN6N8 cells were tested negative for mycoplasma. Cells were routinely cultured in phenol-red free DMEM (Life Technologies) containing 25 mM glucose (3.4 g/L sodium bicarbonate, 50 U/mL penicillin and streptomycin, 71.5 μM β-mercaptoethanol and 10% heat inactivated fetal bovine serum) and transferred to DMEM as above with 5.5 mM glucose 48 h prior to experimentation. Human LS174T cells were cultured in DMEM containing 10% heat-inactivated fetal bovine serum, 50 U mL^−1 penicillin and streptomycin.\nER Stress Measurement: MIN6N8 cells were transfected with the ERAI reporter plasmid (F-XBP1ΔDBD-venus, using Lipofectamine 2000 according to the manufacturer's instructions. For ERAI there was negligible fluorescence in the absence of ER stressors, but upon induction of ER stress, splicing of XBP1 mRNA by IRE1a results in the translation of Venus but not an active form of XBP1. Fluorescence was measured (excitation: 485 nm; emission: 520 nm) using a POLARstar Omega plate reader and cells were treated 48 h after transfection. […] After 24 h, ERAI-sXBP1 GFP reporter fluorescence was measured."}, "[1]": {"test": "Clearance of IL-22 and IL-22 fusion proteins from serum", "format": "in vivo, C57BL/6 mice", "details": "256 ng/g human IL-22 or molar equivalents, i.p.", "experimental": "(§2) Targeting to IL-22 to pancreas: Non-obese male C57BL/6 at 6-8 weeks of age. Each IL-22-GLP-1R ligand fusion protein or hIL-22 was administered i.p. at 256 ng/g of IL-22 and the molar equivalents for the individual fusion proteins (n=3 per regimen). IL-22-ScaB1 was administered at […]. Control mice received a PBS control i.p. injection only.\nSerum concentrations of IL-22 and the IL-22-GLP-1R ligand fusion proteins were determined using a human IL-22 double-determinant ELISA (Biolegend; 434505) against a standard curve for the individual fusion proteins."}, "[2]": {"tested_on": "mice with high fat diet induced obesity", "test": "Dose-finding efficacy study (IPGTT) in mice on a high fat diet for 27 weeks", "format": "in vivo, C57BL/6 male mice", "experimental": "C57BL/6 male mice from 6-8 weeks of age were fed a high fat diet containing 46% of available energy as saturated fat, 34% carbohydrate, 20% protein (Speciality feeds, SF04-027) for 27 weeks and treated as follows:\nIL-22-GLP-1R ligand fusion protein or IL-22 alone were administered twice weekly i.p. at the following doses: 1, 4, 16, 64 and 256 ng/g of IL-22 (0.12-15.4 nmoles/g) and the molar equivalents for IL-22-GLP-1 fusion proteins (n=3 per regimen, except for the lowest dose where n=2); control mice received PBS control only. A fasted Intraperitoneal glucose tolerance tests (IPGTT) was performed (2 g kg-i glucose) on day 14 when the experiment was terminated (tissues were not kept for analysis). Body weight was recorded on days 0, 5, 10 and 13."}, "Human LS174T cells": {"tested_on": "Human LS174T cells", "test": "Oxidative stress (nitrite, Griess assay) in LS174T cells with 0.5 mM palmitate", "format": "cell-based", "details": "2 h prior to 0.5 mM palmitate for 30 min", "experimental": "as §1\nThe Griess Reagent Kit for Nitrite Determination was performed according to the manufacturer's instructions (Molecular Probes) to assess the intracellular levels of nitrite (the stable metabolite of nitric oxide) using lysates of β-cells prepared in RIPA buffer (150 mM NaCl, 1% NP40, 0.5% sodium deoxycholate, 0.1% SDS, 50 mM Tris, pH 7.5)."}, "STAT3 phosphorylation": {"tested_on": "STAT3 phosphorylation", "test": "pStat3 staining in pancreatic islets vs liver, intestine and skin", "format": "in vivo, C57BL/6 mice", "details": "for pStat3 ratio pancreatic islets vs intestine, fold change relative to human IL-22 / pStat3 ratio pancreatic islets vs liver, fold change relative to human IL-22 / pStat3 ratio pancreatic islets vs skin, fold change relative to human IL-22: molar equivalent of 256 ng/g IL-22, 30 min", "experimental": "as §2\nTo assess in vivo activation of the IL-22 receptor signaling pathway, after 30 min the mice were sacrificed and the following tissues were snap frozen and sections were prepared for each mouse: pancreas, skin (ear, tail), colon (rolled), and liver. Sections were stained by immunofluorescence for phosphorylated STAT3 using the Phospho-Stat3 (Tyr705) (D3A7) antibody."}}, "data": [{"molecule": "human IL-22: recombinant human IL-22", "values": [{"measurement": "ER stress caused by the protein alone", "setting": "Murine MIN6N8 cells", "result": "did not cause ER stress"}, {"measurement": "fold more protein required for the same effect as recombinant mouse IL-22 in reducing ER stress", "setting": "Murine MIN6N8 cells; murine MIN6N8 cells, 0.5 mM palmitate, 24 h", "result": "~16", "unit": "fold"}, {"measurement": "clearance / serum concentration over the first 2 hours", "setting": "[1]", "result": "cleared slightly more slowly"}, {"measurement": "body weight changes during treatment", "setting": "[2]; days 0, 5, 10 and 13", "result": "little change in body weight"}, {"measurement": "mean reduction in the increased AUC of the IPGTT of HFD vs normal chow fed control mice", "setting": "[2]; doses >0.96 nmoles/g, two-week therapy", "result": "> 50", "unit": "%"}, {"measurement": "efficacy in IPGTT below 0.96 nmoles/g", "setting": "[2]; two lowest doses", "result": "diminished substantially"}]}, {"molecule": "MPBS-52: IL-22-GLP-1R ligand fusion protein, sequence in FIG. 36, made by Novo Nordisk A/S (protein, MPBS-52 - fusion protein comrpsing a GLP-1 ligand and IL-22) DLSKQMEEEAVRLFIEWLKNGGPSSGAPPPSGGSSSGGGSSSGGGSSSGGGSSSGAPISSHCRLDKSNFQQPYITNRTFMLAKEASLADNNTDVRLIGEKLFHGVSMSERCYLMKQVLNFTLEEVLFPQSDRFQPYMQEVVPFLARLSNRLSTCHIEGDDLHIQRNVQKLKDTVKKLGESGEIKAIGELDLLFMSLRNACIGGSHHHHHH", "values": [{"measurement": "ER stress caused by the protein alone", "setting": "Murine MIN6N8 cells", "result": "did not cause ER stress"}, {"measurement": "protection from palmitate-induced ER stress", "setting": "Murine MIN6N8 cells", "result": "effectively suppressed ER stress"}, {"measurement": "in vitro efficacy for suppression of ER and oxidative stress (conclusion)", "setting": "Murine MIN6N8 cells", "result": "have retained in vitro efficacy"}, {"measurement": "protection from palmitate-induced oxidative stress (nitrite production)", "setting": "Human LS174T cells", "result": "effectively suppressed oxidative stress with a similar efficacy to equivalent molar concentrations of human IL-22"}, {"measurement": "clearance / serum concentration over the first 2 hours", "setting": "[1]", "result": "lower and somewhat more extended/later peak concentration"}, {"measurement": "pStat3 ratio pancreatic islets vs intestine, fold change relative to human IL-22", "setting": "STAT3 phosphorylation", "result": 338, "unit": "fold"}, {"measurement": "pStat3 ratio pancreatic islets vs liver, fold change relative to human IL-22", "setting": "STAT3 phosphorylation", "result": 396, "unit": "fold"}, {"measurement": "pStat3 ratio pancreatic islets vs skin, fold change relative to human IL-22", "setting": "STAT3 phosphorylation", "result": "4,840 fold"}]}, {"molecule": "MPBS-50: IL-22-GLP-1R ligand fusion protein, sequence in FIG. 36, made by Novo Nordisk A/S (protein, MPBS-50 - fusion protein comrpsing a GLP-1 ligand and IL-22) EGTFTSDVSSYLEGQAAKEFIAWLVKGRHGEGTFTSDVSSYLEGQAAKEFIAWLVKGRAPISSHCRLDKSNFQQPYITNRTFMLAKEASLADNNTDVRLIGEKLFHGVSMSERCYLMKQVLNFTLEEVLFPQSDRFQPYMQEVVPFLARLSNRLSTCHIEGDDLHIQRNVQKLKDTVKKLGESGEIKAIGELDLLFMSLRNACIGGSHHHHHH", "values": [{"measurement": "ER stress caused by the protein alone", "setting": "Murine MIN6N8 cells", "result": "did not cause ER stress"}, {"measurement": "protection from palmitate-induced ER stress", "setting": "Murine MIN6N8 cells", "result": "inhibited ER stress in a dose dependent manner at a similar efficacy to a molar equivalent concentration of human IL-22"}, {"measurement": "in vitro efficacy for suppression of ER and oxidative stress (conclusion)", "setting": "Murine MIN6N8 cells", "result": "have retained in vitro efficacy"}, {"measurement": "protection from palmitate-induced oxidative stress (nitrite production)", "setting": "Human LS174T cells", "result": "inhibited oxidative stress (nitrite production) but only toward the highest end of the concentration range used"}, {"measurement": "clearance / serum concentration over the first 2 hours", "setting": "[1]", "result": "cleared with similar kinetics to recombinant human IL-22"}, {"measurement": "pStat3 ratio pancreatic islets vs intestine, fold change relative to human IL-22", "setting": "STAT3 phosphorylation", "result": "not greater than for native human IL-22"}, {"measurement": "pStat3 ratio pancreatic islets vs liver, fold change relative to human IL-22", "setting": "STAT3 phosphorylation", "result": "not greater than for native human IL-22"}, {"measurement": "pStat3 ratio pancreatic islets vs skin, fold change relative to human IL-22", "setting": "STAT3 phosphorylation", "result": 45, "unit": "fold"}]}, {"molecule": "MPBS-51: IL-22-GLP-1R ligand fusion protein, sequence in FIG. 36, made by Novo Nordisk A/S (protein, MPBS-51 - fusion protein comrpsing a GLP-1 ligand and IL-22) EGTFTSDVSSYLEGQAAKEFIAWLVKGRGGGSSSGGGSSSGGGSSSGGGSSSGAPISSHCRLDKSNFQQPYITNRTFMLAKEASLADNNTDVRLIGEKLFHGVSMSERCYLMKQVLNFTLEEVLFPQSDRFQPYMQEWPFLARLSNRLSTCHIEGDDLHIQRNVQKLKDTVKKLGESGEIKAIGELDLLFMSLRNACIGGSHHHHHH", "values": [{"measurement": "ER stress caused by the protein alone", "setting": "Murine MIN6N8 cells", "result": "did not cause ER stress"}, {"measurement": "protection from palmitate-induced ER stress", "setting": "Murine MIN6N8 cells", "result": "did not effectively suppress ER stress at any of the concentrations tested"}, {"measurement": "in vitro efficacy for suppression of ER and oxidative stress (conclusion)", "setting": "Murine MIN6N8 cells", "result": "appears inactive in-vitro"}, {"measurement": "protection from palmitate-induced oxidative stress (nitrite production)", "setting": "Human LS174T cells", "result": "did not effectively suppress oxidative stress at any of the concentrations tested"}, {"measurement": "clearance / serum concentration over the first 2 hours", "setting": "[1]", "result": "lower and somewhat more extended/later peak concentration"}, {"measurement": "STAT3 phosphorylation in tissues in vivo", "setting": "STAT3 phosphorylation; 30 min after administration", "result": "did induce STAT3 phosphorylation in the pancreas as well as liver and gut"}, {"measurement": "pStat3 ratio pancreatic islets vs intestine, fold change relative to human IL-22", "setting": "STAT3 phosphorylation", "result": "not greater than for native human IL-22"}, {"measurement": "pStat3 ratio pancreatic islets vs liver, fold change relative to human IL-22", "setting": "STAT3 phosphorylation", "result": "not greater than for native human IL-22"}, {"measurement": "pStat3 ratio pancreatic islets vs skin, fold change relative to human IL-22", "setting": "STAT3 phosphorylation", "result": 113, "unit": "fold"}]}]}
